Reference: patent US20220332804A1 (CSL INNOVATION, published 2022)
Where a chain is given by its changes, count along the chain named.

Columns and labels:
Assay in all cases: SPR, KD relative to WT C2;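 note: biacore SPR at 37 °C, anti-C2 mAbs captured on anti-human IgG chips with alanine or serine point mutants of C2 as analyte, KD from 1:1 fit compared with wild-type C2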
[1] = biological target: T1, human C2 T317A (human, UniProt P06681 21-752)
T1 sequence: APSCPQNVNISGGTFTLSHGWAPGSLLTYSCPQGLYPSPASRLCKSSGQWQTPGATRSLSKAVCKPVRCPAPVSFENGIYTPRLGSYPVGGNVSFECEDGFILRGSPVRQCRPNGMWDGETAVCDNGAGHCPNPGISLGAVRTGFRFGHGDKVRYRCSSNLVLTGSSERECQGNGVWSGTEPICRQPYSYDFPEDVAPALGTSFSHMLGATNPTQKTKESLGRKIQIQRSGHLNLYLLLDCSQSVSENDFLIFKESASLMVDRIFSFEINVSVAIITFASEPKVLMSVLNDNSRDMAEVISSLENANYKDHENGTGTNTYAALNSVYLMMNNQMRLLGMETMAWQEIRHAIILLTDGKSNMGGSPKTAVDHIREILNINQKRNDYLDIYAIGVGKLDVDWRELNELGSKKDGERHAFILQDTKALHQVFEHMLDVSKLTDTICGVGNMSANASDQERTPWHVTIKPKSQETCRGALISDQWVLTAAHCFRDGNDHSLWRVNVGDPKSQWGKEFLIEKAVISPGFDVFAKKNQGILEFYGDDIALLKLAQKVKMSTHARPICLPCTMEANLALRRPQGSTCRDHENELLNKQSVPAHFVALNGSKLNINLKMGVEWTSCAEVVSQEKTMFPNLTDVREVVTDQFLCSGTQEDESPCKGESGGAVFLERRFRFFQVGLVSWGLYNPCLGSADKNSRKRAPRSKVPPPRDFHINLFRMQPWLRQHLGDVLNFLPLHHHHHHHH

[2] = biological target: T2, human C2 H331A (human, UniProt P06681 21-752)
T2 sequence: T1 sequence with A297T, H311A

[3] = biological target: T3, human C2 V418A (human, UniProt P06681 21-752)
T3 sequence: T1 sequence with A297T, V398A

[4] = biological target: T4, human C2 M452A (human, UniProt P06681 21-752)
T4 sequence: T1 sequence with A297T, M432A

B1: RF16-242 (antibody, human IgG4 S228P, lambda, V domains shown)
VH: EVQLLQSGAEVKKPGESLKISCKGSGYSFTSYWIGWVRQMPGKGLEWMGIIYPGDSDTRYSPSFQGQVTISADKSISTAYLQWSSLKASDTAMYYCARRGHYGDYFDYWGQGTLVTVSS
VL: SYELTQPPSVSVSPGQTARITCSGDALPKKYAYWYHQKSGQAPVLVIYEDRRRPSEIPERFSGSSSGTMATLTITGAQVEDEGVYFCYSRDRAGNQRVFGGGTQLTVLG
notes: pH-dependent anti-C2 antibody from a phage display library
- Fold diff [1]: 1 fold
- Fold diff [2]: 27 fold
- Fold diff [3]: 1 fold
- Fold diff [4]: 1 fold
